Test results from patent US20220162312A1 (WUXI BIOLOGICS IRELAND, published 2022).

Experiments:
[1] = molecular target: T1, CD20 on Raji cells (CD20+/CD3- cells) (human, UniProt P11836 1-297); assay: cell-based or functional assay
T1 sequence (looked up): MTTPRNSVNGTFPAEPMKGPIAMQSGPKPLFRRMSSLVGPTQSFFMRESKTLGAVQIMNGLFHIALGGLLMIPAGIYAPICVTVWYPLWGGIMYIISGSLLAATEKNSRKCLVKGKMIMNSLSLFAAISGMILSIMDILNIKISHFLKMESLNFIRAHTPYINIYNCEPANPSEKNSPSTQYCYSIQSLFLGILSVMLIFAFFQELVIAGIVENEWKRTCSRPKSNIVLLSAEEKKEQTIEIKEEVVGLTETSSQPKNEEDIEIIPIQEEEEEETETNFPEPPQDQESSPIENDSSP

[2] = molecular target: T1, CD20 on Raji cells (CD20+/CD3- cells); assay: cell-based or functional assay; remark: listed apart in the source
[3] = molecular target: T1, CD20 on Raji cells (CD20+/CD3- cells); assay: cell-based or functional assay; remark: listed apart in the source
[4] = molecular target: T1, CD20 on Raji cells (CD20+/CD3- cells); assay: cell-based or functional assay; remark: listed apart in the source
[5] = molecular target: T1, CD20 on Raji cells (CD20+/CD3- cells); assay: flow cytometry on Raji cells (CD20+/CD3-)
Procedure: (§1) The binding of W3278 BsAb to target cells was determined by flow cytometry. Briefly, 1×10⁵/well of target cells (CD3+/CD20− cells or CD20+/CD3− cells) were incubated with serial dilutions of W3278 BsAb or human IgG4 isotype control antibody at 4° C. for 60 minutes. After incubation, cells were washed twice with cold 1% BSA/1×PBS and Alexa Fluor647 conjugated Goat anti-human IgG Fc (Jackson-109-605-098) was then added and incubated for 30 minutes at 4° C. After washing twice, the geometric mean fluorescence (MFI) of stained cells was measured using a FACS Canto II cytometer (BD Biosciences). Wells containing no antibody or fluorescent secondary antibody only were used to establish background fluorescence. The EC₅₀ values of cell binding were determined using GraphPad Prism 5 software (GraphPad Software, La Jolla, Calif.) with values calculated using a four-parameter non-linear regression analysis.

[6] = molecular target: T2, CD3 on Jurkat cells (CD3+/CD20- cells) (human, UniProt P07766 23-207; P04234 22-171; P09693 23-182); assay: flow cytometry on Jurkat cells (CD3+/CD20-)
T2 construct: whole, on cells; also called human CD3; Jurkat 2B8
T2 sequence (P07766 23-207, chain 1 of 3): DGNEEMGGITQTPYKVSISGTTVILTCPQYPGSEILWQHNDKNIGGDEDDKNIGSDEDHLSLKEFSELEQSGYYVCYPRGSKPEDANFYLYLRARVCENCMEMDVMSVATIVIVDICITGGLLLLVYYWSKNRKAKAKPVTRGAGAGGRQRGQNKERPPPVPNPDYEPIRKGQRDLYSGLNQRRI
T2 sequence (P04234 22-171, chain 2 of 3): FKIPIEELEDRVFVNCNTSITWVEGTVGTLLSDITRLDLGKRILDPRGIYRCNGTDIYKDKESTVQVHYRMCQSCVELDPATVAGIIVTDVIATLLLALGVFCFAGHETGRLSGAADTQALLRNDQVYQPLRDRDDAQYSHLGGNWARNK
T2 sequence (P09693 23-182, chain 3 of 3): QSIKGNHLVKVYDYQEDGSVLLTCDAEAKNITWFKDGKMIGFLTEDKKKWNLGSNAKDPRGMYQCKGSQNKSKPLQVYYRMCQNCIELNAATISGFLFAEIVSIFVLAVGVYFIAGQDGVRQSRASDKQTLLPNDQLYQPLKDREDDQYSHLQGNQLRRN
Procedure: as §1

Row | T cell CD69 expression EC50 (Table 5A as titled), CD4+/Raji [1] [pM] | T cell CD69 expression EC50 (Table 5A as titled), CD8+/Raji [1] [pM] | T cell CD69 expression EC50 (Table 5B), CD4+/Raji [2] [pM] | T cell CD69 expression EC50 (Table 5B), CD8+/Raji [2] [pM] | CD4+ T cell IL-2 release EC50, with Raji cells [4] [pM] | CD4+ T cell TNF-a release EC50, with Raji cells [4] [pM] | EC50 [5] [pM] | TOP MFI [5] [MFI] | EC50 [6] [pM] | TOP MFI [6] [MFI] | Binder | cytotoxicity EC50, NAMALWA cells, CD8+ T cells as effectors [3] [pM] | cytotoxicity EC50, Raji cells, CD8+ T cells as effectors [3] [pM] | cytotoxicity EC50, Ramos cells, CD8+ T cells as effectors [3] [pM]
1 | 0.6 | 0.8 | 0.2 | 0.4 | 11.4 | 13.5 | – | – | – | – | W3278-U2T3.F18R-1.uIgG4.SP (bispecific antibody) heavy 1: QVQLQQPGAELVKPGASVKMSCKASGYTFTSYNMHWVKQTPGRGLEWIGAIYPGNGDTSYNQKFKGKATLTADKSSSTAYMQLSSLTSEDSAVYYCARSTYYGGDWYFNVWGAGTTVTVSAASTKGPSVFPLAPCSRSTSESTAALGCLVKDYFPEPVTVSWNSGALTSGVHTFPAVLQSSGLYSLSSVVTVPSSSLGTKTYTCNVDHKPSNTKVDKRVGGGGSGGGGSQVQLVQSGAEVKKPGSSVKVSCKASGFAFTDYYIHWVRQAPGQGLEWMGWISPGNVNTKYNENFKGRVTITADKSTSTAYMELSSLRSEDTAVYYCARDGYSLYYFDYWGQGTLVTVLEDLKNVFPPEVAVFEPSEAEISHTQKATLVCLATGFYPDHVELSWWVNGKEVHSGVCTDPQPLKEQPALQDSRYALSSRLRVSATFWQNPRNHFRCQVQFYGLSENDEWTQDRAKPVTQIVSAEAWGRYGPPCPPCPAPEFLGGPSVFLFPPKPKDTLMISRTPEVTCVVVDVSQEDPEVQFNWYVDGVEVHNAKTKPREEQFNSTYRVVSVLTVLHQDWLNGKEYKCKVSNKGLPSSIEKTISKAKGQPREPQVYTLPPCQEEMTKNQVSLWCLVKGFYPSDIAVEWESNGQPENNYKTTPPVLDSDGSFFLYSRLTVDKSRWQEGNVFSCSVMHEALHNHYTQKSLSLSLG heavy 2: QVQLQQPGAELVKPGASVKMSCKASGYTFTSYNMHWVKQTPGRGLEWIGAIYPGNGDTSYNQKFKGKATLTADKSSSTAYMQLSSLTSEDSAVYYCARSTYYGGDWYFNVWGAGTTVTVSAASTKGPSVFPLAPCSRSTSESTAALGCLVKDYFPEPVTVSWNSGALTSGVHTFPAVLQSSGLYSLSSVVTVPSSSLGTKTYTCNVDHKPSNTKVDKRVESKYGPPCPPCPAPEFLGGPSVFLFPPKPKDTLMISRTPEVTCVVVDVSQEDPEVQFNWYVDGVEVHNAKTKPREEQFNSTYRVVSVLTVLHQDWLNGKEYKCKVSNKGLPSSIEKTISKAKGQPREPQVCTLPPSQEEMTKNQVSLSCAVKGFYPSDIAVEWESNGQPENNYKTTPPVLDSDGSFFLVSRLTVDKSRWQEGNVFSCSVMHEALHNHYTQKSLSLSLG light 1: QIVLSQSPAILSASPGEKVTMTCRASSSVSYIHWFQQKPGSSPKPWIYATSNLASGVPVRFSGSGSGTSYSLTISRVEAEDAATYYCQQWTSNPPTFGGGTKLEIKRTVAAPSVFIFPPSDEQLKSGTASVVCLLNNFYPREAKVQWKVDNALQSGNSQESVTEQDSKDSTYSLSSTLTLSKADYEKHKVYACEVTHQGLSSPVTKSFNRGEC light 2: DIVMTQSPDSLAVSLGERATINCKSSQSLLNSRTRKNYLAWYQQKPGQPPKLLIYWASTRQSGVPDRFSGSGSGTDFTLTISSLQAEDVAVYYCTQSHTLRTFGGGTKVEIKPDIQNPDPAVYQLRDSKSSDKSVCLFTDFDSQTQVSQSKDSDVYITDKCVLDMRSMDFKSNSAVAWSQKSDFACANAFQNSIIPEDTFFPSPESS | 46.8 | 0.52 | 1.25
2 | – | – | – | – | – | – | 1300 | 55400 | 26600 | 536 | W3278-U3T2.F18R-1.uIgG4.SP (bispecific antibody, Human IgG4 (S228P) knobs-into-holes, same F18R-1 format as m3, so L1 probably stands twice; also called W3278-U3T2.F18R-1.ulgG4.SP) heavy 1: EVQLVESGGGLVQPGRSLRLSCAASGFTFNDYAMHWVRQAPGKGLEWVSTISWNSGSIGYADSVKGRFTISRDNAKKSLYLQMNSLRAEDTALYYCAKDIQYGNYYYGMDVWGQGTTVTVSSASTKGPSVFPLAPCSRSTSESTAALGCLVKDYFPEPVTVSWNSGALTSGVHTFPAVLQSSGLYSLSSVVTVPSSSLGTKTYTCNVDHKPSNTKVDKRVGGGGSGGGGSQVQLVQSGAEVKKPGSSVKVSCKASGYSFTTYYIHWVRQAPGQGLEWMGWIFPGNDNIKYSEKFKGRVTITADKSTSTAYMELSSLRSEDTAVYYCAIDSVSIYYFDYWGQGTLVTVLEDLKNVFPPEVAVFEPSEAEISHTQKATLVCLATGFYPDHVELSWWVNGKEVHSGVCTDPQPLKEQPALQDSRYALSSRLRVSATFWQNPRNHFRCQVQFYGLSENDEWTQDRAKPVTQIVSAEAWGRYGPPCPPCPAPEFLGGPSVFLFPPKPKDTLMISRTPEVTCVVVDVSQEDPEVQFNWYVDGVEVHNAKTKPREEQFNSTYRVVSVLTVLHQDWLNGKEYKCKVSNKGLPSSIEKTISKAKGQPREPQVYTLPPCQEEMTKNQVSLWCLVKGFYPSDIAVEWESNGQPENNYKTTPPVLDSDGSFFLYSRLTVDKSRWQEGNVFSCSVMHEALHNHYTQKSLSLSLG heavy 2: EVQLVESGGGLVQPGRSLRLSCAASGFTFNDYAMHWVRQAPGKGLEWVSTISWNSGSIGYADSVKGRFTISRDNAKKSLYLQMNSLRAEDTALYYCAKDIQYGNYYYGMDVWGQGTTVTVSSASTKGPSVFPLAPCSRSTSESTAALGCLVKDYFPEPVTVSWNSGALTSGVHTFPAVLQSSGLYSLSSVVTVPSSSLGTKTYTCNVDHKPSNTKVDKRVESKYGPPCPPCPAPEFLGGPSVFLFPPKPKDTLMISRTPEVTCVVVDVSQEDPEVQFNWYVDGVEVHNAKTKPREEQFNSTYRVVSVLTVLHQDWLNGKEYKCKVSNKGLPSSIEKTISKAKGQPREPQVCTLPPSQEEMTKNQVSLSCAVKGFYPSDIAVEWESNGQPENNYKTTPPVLDSDGSFFLVSRLTVDKSRWQEGNVFSCSVMHEALHNHYTQKSLSLSLG light 1: not shown light 2: not shown light 3: DIVMTQSPDSLAVSLGERATINCKSSQSLLNSRTRKNYLAWYQQKPGQPPKLLIYWASTRKSGVPDRFSGSGSGTDFTLTISSLQAEDVAVYYCTQSFILRTFGGGTKVEIKPDIQNPDPAVYQLRDSKSSDKSVCLFTDFDSQTQVSQSKDSDVYITDKCVLDMRSMDFKSNSAVAWSQKSDFACANAFQNSIIPEDTFFPSPESS | – | – | –
